In paper PMC7438732, “The H^+-Translocating Inorganic Pyrophosphatase From Arabidopsis thaliana Is More Sensitive to Sodium Than Its Na^+-Translocating Counterpart From Methanosarcina mazei” (Frontiers in Plant Science, 2020) one finds K0.5 data, which are given here for 1 substance.

The subject of the series is O=P(O)(O)OP(=O)(O)O. Put plainly: cells, lysate or membranes. Particulars: 0 mM added NaCl, 100 mM KCl, pH 7.2, 30 °C, Mg2PPi substrate without excess Mg2+, Na+ from Na4PPi present.

Chain of MVP (Methanosarcina mazei Go1) (chain, as listed by the source): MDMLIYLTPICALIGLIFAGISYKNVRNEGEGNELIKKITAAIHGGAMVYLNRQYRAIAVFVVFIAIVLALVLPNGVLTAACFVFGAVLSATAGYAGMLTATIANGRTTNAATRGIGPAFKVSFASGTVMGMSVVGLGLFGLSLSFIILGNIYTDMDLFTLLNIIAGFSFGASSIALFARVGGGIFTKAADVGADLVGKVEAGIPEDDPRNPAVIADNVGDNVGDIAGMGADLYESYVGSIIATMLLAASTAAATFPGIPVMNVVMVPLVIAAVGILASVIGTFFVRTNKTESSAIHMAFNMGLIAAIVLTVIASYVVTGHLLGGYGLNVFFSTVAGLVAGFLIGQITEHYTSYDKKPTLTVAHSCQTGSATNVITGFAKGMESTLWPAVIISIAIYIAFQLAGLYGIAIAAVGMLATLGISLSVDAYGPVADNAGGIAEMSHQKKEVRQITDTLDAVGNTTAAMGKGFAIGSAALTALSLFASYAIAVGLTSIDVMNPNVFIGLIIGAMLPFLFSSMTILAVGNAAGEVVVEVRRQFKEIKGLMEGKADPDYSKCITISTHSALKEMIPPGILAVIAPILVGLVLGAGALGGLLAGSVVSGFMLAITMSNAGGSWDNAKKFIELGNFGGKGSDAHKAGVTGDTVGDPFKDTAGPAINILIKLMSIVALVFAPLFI

As to MVP (Methanosarcina mazei Go1), the K0.5 was found to be 0.27 ± 0.27 mM.
